In the nanobody polyreactivity screen of Harvey et al. (2022):

Assay: yeast display, Sf9 membrane polyspecificity reagent, FACS + sequencing; frameworks hold sequencing errors
Procedure, shortened: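 Nanobodies from a synthetic yeast display library (Saccharomyces cerevisiae BJ5465), induced 36–48 hours with galactose, were stained 1 hour at 4 °C with 10% biotinylated, detergent-solubilized Sf9 membrane reagent, enriched on streptavidin microbeads, then FACS-sorted. Anti-HA (expression) and streptavidin (reagent binding) fluorescence set low and high (top ~1%) gates. Polyreactivity labels come from the gate of origin. Genes were colony-PCR amplified, MiSeq 2 × 250 sequenced and filtered by CDR length.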

Row | Sequence | polyreactivity (PSR sort gate)
1 | QVQLVESGGGLVQAGGSLRLSCAASGSTFAVNAMRSYRQAPGKEREFVAAISFGTGSTYYADSVKGRFTISRDNAKKTVYLQMNSLKPEDTAVYYCNAEASGYYWWWGYDYWGQGTQVTVSS | low polyreactivity
2 | QVQLVESGGGLVQAGGSLRLSCAASGSTFAWYAMGWYRQAPGKERELVAAISRTGRTYYADSVKGRFTISRDNAKNTVYLQMNSLKPEDTAVYYCAARIERFYRDQRYDYWGQGTQVTVSS | high polyreactivity
3 | QVQLVESGGGLVQAGGSLRLSCAASGSTFAYNAMGWYRQAPGKERELVAAISWGDGITYYADSVKGRFTISRDNAKNTVYLQMNSLKPEDTAVITRDFGYWGQGTQVTVSS | low polyreactivity
4 | QVQLVESGGGLVQAGGSLRLSCAASGSTFAYNAMGWYRQAPGKERELVASISWTGGSTYYADSVKGRFTISRDNAKNTVYLQMNSLKPEDTAVYYCAVDWLEGYEFDSWGQGTQVTVSS | low polyreactivity
5 | QVQLVESGGGLVQAGGSLRLSCAASGSTFAYYAMGWYRQAPGKERELVAAIDDTGSTNYADSVKGRFTISRDNAKYTVFLQMNSLKPEYTAVYYCNAQPDGTYDYWGQGTQVTVSS | low polyreactivity
6 | QVQLVESGGGLVQAGGSLRLSCAASGSTFAYYTMGWYRQAPGKERELVAAISKSGGSTTYADSVKGRFTISRDNAKNTVYLQMNSLKPEDTAVYYCAAYDRVENYNYWGQGTQVTVSS | high polyreactivity
7 | QVQLVESGGGLVQAGGSLRLSCAASGSTFCFYAMGWYRQSPGKERELVATITIGGRTYADSVKGRFTISRDNAKNTLYLQMNSLKPEDTAVYYCNARNHVQVLFRRDYWVQGTQVTVSS | low polyreactivity
8 | QVQLVESGGGLVQAGGSLRLSCAASGSTFCINAMGWYRQAPGKERDLVAAISSRGGSTYYADSVKGRFTISRDNAKNTVYLQMNSLKPEDTAVYYCAAEFAVSFYWSWLGQDYNYWGQGTQVTVSS | high polyreactivity
9 | QVQLVESGGGLVQAGGSLRLSCAASGSTFDAYAMGWSRQAPGKERELVAAMTNAGSTNYADSVKGRFTISRDNAKNTVYLQMNSLKPEDTAVYYCATDWYHRYLDGRYDYLGQGTQVTVSS | low polyreactivity
10 | QVQLVESGGGLVQAGGSLRLSCAASGSTFDAYAMGWYRQAPGKEWELVAAISTRGGRTDYADSVKGRFTISRDNAKNTVYLQMNSRKPEDTAVYYCTAVGARVNVRGTPAFDSWGQGTQVTVSS | high polyreactivity
11 | QVQLVESGGGLVQAGGSLRLSCAASGSTFDDNAMGWYRQAPGKERELVAAITYRGTRTYYADSVKGRFTISRDNAKNTVYLQMNSLKPEDTAVYYCAADSESVGYEYWGQGTQVTVSS | high polyreactivity
12 | QVQLVESGGGLVQAGGSLRLSCAASGSTFDDYAMGWYRQAPGKEREFVAAITYGGGNTYYADSVKGRFTISRDNAKNTVYLQMNSLKPEDTAVYYCNKLSRGFSPKYGYWGQGTQVTVSS | high polyreactivity
13 | QVQLVESGGGLVQAGGSLRLSCAASGSTFDFYAMGWYRQAPGKERELVARISSGGGRTYYADSVKGRFTISRDNAKNTVYLQMNSLKPEDTAVYYCATDYPWIFGHFLMDYWGQGTQVTVSS | low polyreactivity
14 | QVQLVESGGGLVQAGGSLRLSCAASGSTFDGNAMGWYRQAPGKERELVAAISSSGGSTYYADSVKGRFTISRDNAKNTVYLQMNSLKPEDTAVYYCAAGGWSTLLSWFYRRYDYWGQGTQVTVSS | high polyreactivity
15 | QVQLVESGGGLVQAGGSLRLSCAASGSTFDGNAMGWYRQAPGKERELVAAITSGGSTNYADSVKGRFTISRDNAKNTVYLQMNSLKPEDTAVYYCAADTVSFSILYDYWGQGTQVTVSS | low polyreactivity
16 | QVQLVESGGGLVQAGGSLRLSCAASGSTFDGNAMGWYRQAPGKERELVAGISYRGGSTYYADSVKGRFTISRDNAKNTVYLQMNSLKPEDTAVYYCAADDYGYWLFDYWGQGTQVTVSS | low polyreactivity
17 | QVQLVESGGGLVQAGGSLRLSCAASGSTFDGNAMGWYRQAPGKERELVASITQRASNTYYADSVKGRFTISRDNAKNTVDLQMNSLKPEDTAVYYCARQWYWRPVYYIGQGYEYWGQGTQVTVSS | low polyreactivity
